The values that follow are results of earlier work, collected in article PMC12071684.

The target of the series is von Willebrand factor (Homo sapiens) (UniProt P04275).

In general, Kd refers to a measure of binding affinity in units of concentration. Regarding ADAMTS13 (from UniProt Q76LX8), the Kd was 20 nM.
